# Reference: US20260167699A1 (Chugai, published 2026)
# Where a chain is given by its changes, count along the chain named.
# T1: FcγRIIa(R) extracellular domain, His-tagged (human, UniProt P12318 34-217)
# T1 construct: extracellular domain; also called 2aR
# T1 sequence: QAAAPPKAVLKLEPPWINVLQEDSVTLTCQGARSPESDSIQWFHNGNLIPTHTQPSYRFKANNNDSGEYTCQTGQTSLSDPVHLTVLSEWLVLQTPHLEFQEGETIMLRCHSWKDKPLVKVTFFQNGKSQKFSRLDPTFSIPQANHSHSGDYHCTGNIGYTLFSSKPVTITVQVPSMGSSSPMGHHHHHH
# T2: FcγRIIa(H) extracellular domain, His-tagged (human, UniProt P12318 34-217)
# T2 construct: extracellular domain; also called 2aH
# T2 sequence: T1 sequence with R134H
# T3: FcγRIIb extracellular domain, His-tagged (human, UniProt P31994 43-217)
# T3 construct: extracellular domain; also called 2b
# T3 sequence: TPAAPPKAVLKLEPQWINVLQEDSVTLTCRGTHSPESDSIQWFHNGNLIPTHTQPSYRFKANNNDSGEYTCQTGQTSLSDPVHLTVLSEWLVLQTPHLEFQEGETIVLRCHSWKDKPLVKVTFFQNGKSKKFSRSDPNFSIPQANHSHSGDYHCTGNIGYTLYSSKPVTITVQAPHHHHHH
# B1: GpH7-A5/GpH7-B3 variant P271_06M/GpL16-k0 (antibody, human IgG1, kappa)
# heavy 1: not shown
# heavy 2: not shown
# light: DIVMTQSPLSLPVTPGEPASISCQASESLVHSNRNTYLHWYLQKPGQSPQLLIYKVSNRFSGVPDRFSGSGSGTDFTLKISRVEAEDVGVYYCSQNTHVPPTFGQGTKVEIERTVAAPSVFIFPPSDEQLKSGTASVVCLLNNFYPREAKVQWKVDNALQSGNSQESVTEQDSKDSTYSLSSTLTLSKADYEKHKVYACEVTHQGLSSPVTKSFNRGEC
# B2: GpH7-A5/GpH7-B3 variant Q295_06M/GpL16-k0 (antibody, human IgG1, kappa)
# heavy 1: not shown
# heavy 2: not shown
# light: B1 light
# B3: GpH7-A5/GpH7-B3 variant P271_19Q/GpL16-k0 (antibody, human IgG1, kappa)
# heavy 1: not shown
# heavy 2: not shown
# light: B1 light
# B4: GpH7-A5/GpH7-B3 variant Q295_03V/GpL16-k0 (antibody, human IgG1, kappa)
# heavy 1: not shown
# heavy 2: not shown
# light: B1 light
# B5: GpH7-A5/GpH7-B3 variant P271_20W/GpL16-k0 (antibody, human IgG1, kappa)
# heavy 1: not shown
# heavy 2: not shown
# light: B1 light
# B6: GpH7-A5/GpH7-B3 variant P271_09D/GpL16-k0 (antibody, human IgG1, kappa)
# heavy 1: not shown
# heavy 2: not shown
# light: B1 light
# B7: GpH7-A5/GpH7-B3 variant P271_10E/GpL16-k0 (antibody, human IgG1, kappa)
# heavy 1: not shown
# heavy 2: not shown
# light: B1 light
# B8: GpH7-A5/GpH7-B3 variant P271_18N/GpL16-k0 (antibody, human IgG1, kappa)
# heavy 1: not shown
# heavy 2: not shown
# light: B1 light
# B9: GpH7-A5/GpH7-B3 variant P271_15Y/GpL16-k0 (antibody, human IgG1, kappa)
# heavy 1: not shown
# heavy 2: not shown
# light: B1 light
# B10: GpH7-A5/GpH7-B3 variant P271_08L/GpL16-k0 (antibody, human IgG1, kappa)
# heavy 1: not shown
# heavy 2: not shown
# light: B1 light
# B11: GpH7-A5/GpH7-B3 variant Q295_04F/GpL16-k0 (antibody, human IgG1, kappa)
# heavy 1: not shown
# heavy 2: not shown
# light: B1 light
# B12: GpH7-A5/GpH7-B3 variant Q295_11K/GpL16-k0 (antibody, human IgG1, kappa)
# heavy 1: not shown
# heavy 2: not shown
# light: B1 light
# B13: GpH7-A5/GpH7-B3 variant Q295_05P/GpL16-k0 (antibody, human IgG1, kappa)
# heavy 1: not shown
# heavy 2: not shown
# light: B1 light
# B14: GpH7-A5/GpH7-B3 variant P271_14T/GpL16-k0 (antibody, human IgG1, kappa)
# heavy 1: not shown
# heavy 2: not shown
# light: B1 light
# B15: GpH7-A5/GpH7-B3 variant P271_16H/GpL16-k0 (antibody, human IgG1, kappa)
# heavy 1: not shown
# heavy 2: not shown
# light: B1 light
# B16: GpH7-A5/GpH7-B3 variant Q295_10E/GpL16-k0 (antibody, human IgG1, kappa)
# heavy 1: not shown
# heavy 2: not shown
# light: B1 light
# B17: GpH7-A5/GpH7-B3 variant Q295_09D/GpL16-k0 (antibody, human IgG1, kappa)
# heavy 1: not shown
# heavy 2: not shown
# light: B1 light
# B18: GpH7-A5/GpH7-B3 variant P271_07I/GpL16-k0 (antibody, human IgG1, kappa)
# heavy 1: not shown
# heavy 2: not shown
# light: B1 light
# B19: GpH7-A5/GpH7-B3 variant P271_11K/GpL16-k0 (antibody, human IgG1, kappa)
# heavy 1: not shown
# heavy 2: not shown
# light: B1 light
# B20: GpH7-A5/GpH7-B3 variant Q295_08L/GpL16-k0 (antibody, human IgG1, kappa)
# heavy 1: not shown
# heavy 2: not shown
# light: B1 light
# B21: GpH7-A5/GpH7-B3 variant Q295_13S/GpL16-k0 (antibody, human IgG1, kappa)
# heavy 1: not shown
# heavy 2: not shown
# light: B1 light
# B22: GpH7-A5/GpH7-B3 variant P271_13S/GpL16-k0 (antibody, human IgG1, kappa)
# heavy 1: not shown
# heavy 2: not shown
# light: B1 light
# B23: GpH7-A5/GpH7-B3 variant Q295_02A/GpL16-k0 (antibody, human IgG1, kappa)
# heavy 1: not shown
# heavy 2: not shown
# light: B1 light
# B24: GpH7-A5/GpH7-B3 variant Q295_12R/GpL16-k0 (antibody, human IgG1, kappa)
# heavy 1: not shown
# heavy 2: not shown
# light: B1 light
# B25: GpH7-A5/GpH7-B3 variant Q295_07I/GpL16-k0 (antibody, human IgG1, kappa)
# heavy 1: not shown
# heavy 2: not shown
# light: B1 light
# B26: GpH7-A5/GpH7-B3 variant P271_12R/GpL16-k0 (antibody, human IgG1, kappa)
# heavy 1: not shown
# heavy 2: not shown
# light: B1 light
# Biological target: T1, FcγRIIa(R) extracellular domain, …
# Experiment: SPR, vs GpH7-A5/GpH7-B3/GpL16-k0 =100
row,He/Con 2aR,Binder
1,87.3 % of control,B1
2,101 % of control,B2
3,95.1 % of control,B3
4,90.3 % of control,B4
5,76.6 % of control,B5
6,109 % of control,B6
7,102 % of control,B7
8,97.7 % of control,B8
9,70 % of control,B9
10,103 % of control,B10
11,82.8 % of control,B11
12,88.1 % of control,B12
13,86.6 % of control,B13
14,94.7 % of control,B14
15,79 % of control,B15
16,101 % of control,B16
17,68.7 % of control,B17
18,88 % of control,B18
19,97.3 % of control,B19
20,118 % of control,B20
21,73 % of control,B21
22,93.5 % of control,B22
23,91.5 % of control,B23
24,82.2 % of control,B24
25,97.3 % of control,B25
26,95.8 % of control,B26

# Biological target: T4, FcγRIIIa extracellular domain, His-tagged (human, UniProt P08637 17-208)
# T4 construct: extracellular domain; also called 3a
# Experiment: SPR, vs GpH7-A5/GpH7-B3/GpL16-k0 =100
# T4 sequence (P08637 other isoform, or with tags, fused parts or gaps): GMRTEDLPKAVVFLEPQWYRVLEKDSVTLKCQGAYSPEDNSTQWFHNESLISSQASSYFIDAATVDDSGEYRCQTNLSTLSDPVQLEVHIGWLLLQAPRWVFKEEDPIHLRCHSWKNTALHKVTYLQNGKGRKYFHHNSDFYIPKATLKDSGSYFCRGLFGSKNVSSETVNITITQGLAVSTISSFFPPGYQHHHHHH
row,He/Con 3a,Binder
1,74 % of control,B1
2,100 % of control,B2
3,84.6 % of control,B3
4,86.2 % of control,B4
5,77.8 % of control,B5
6,97.7 % of control,B6
7,98.2 % of control,B7
8,94 % of control,B8
9,62.7 % of control,B9
10,74.5 % of control,B10
11,75.1 % of control,B11
12,81.8 % of control,B12
13,74.4 % of control,B13
14,59.2 % of control,B14
15,70.3 % of control,B15
16,105 % of control,B16
17,85.6 % of control,B17
18,80.2 % of control,B18
19,92.5 % of control,B19
20,120 % of control,B20
21,90.4 % of control,B21
22,79.8 % of control,B22
23,111 % of control,B23
24,73.2 % of control,B24
25,101 % of control,B25
26,87.6 % of control,B26

# Biological target: T2, FcγRIIa(H) extracellular domain, …
# Experiment: SPR, vs GpH7-A5/GpH7-B3/GpL16-k0 =100
row,He/Con 2aH,Binder
1,87.7 % of control,B1
2,111 % of control,B2
3,90.7 % of control,B3
4,106 % of control,B4
5,88.7 % of control,B5
6,80.4 % of control,B6
7,72.4 % of control,B7
8,94.5 % of control,B8
9,74 % of control,B9
10,99.4 % of control,B10
11,87.4 % of control,B11
12,102 % of control,B12
13,118 % of control,B13
14,69.8 % of control,B14
15,76.4 % of control,B15
16,112 % of control,B16
17,62.6 % of control,B17
18,94.1 % of control,B18
19,100 % of control,B19
20,128 % of control,B20
21,79.5 % of control,B21
22,83.3 % of control,B22
23,101 % of control,B23
24,96.4 % of control,B24
25,117 % of control,B25
26,100 % of control,B26

# Biological target: T3, FcγRIIb extracellular domain, His-tagged
# Experiment: SPR, vs GpH7-A5/GpH7-B3/GpL16-k0 =100
row,He/Con 2b,Binder
1,87 % of control,B1
2,101 % of control,B2
3,99.3 % of control,B3
4,84.9 % of control,B4
5,65.1 % of control,B5
6,135 % of control,B6
7,122 % of control,B7
8,105 % of control,B8
9,58.6 % of control,B9
10,115 % of control,B10
11,72.6 % of control,B11
12,79 % of control,B12
13,75.7 % of control,B13
14,107 % of control,B14
15,76.2 % of control,B15
16,106 % of control,B16
17,68.1 % of control,B17
18,86.1 % of control,B18
19,101 % of control,B19
20,134 % of control,B20
21,63.8 % of control,B21
22,98.2 % of control,B22
23,89.4 % of control,B23
24,73.1 % of control,B24
25,94.5 % of control,B25
26,96.9 % of control,B26

# Biological target: T5, FcγRIa extracellular domain, His-tagged (human, UniProt P12314 16-292)
# T5 construct: extracellular domain; also called 1a
# Experiment: SPR, vs GpH7-A5/GpH7-B3/GpL16-k0 =100
# T5 sequence (P12314 other isoform, or with tags, fused parts or gaps): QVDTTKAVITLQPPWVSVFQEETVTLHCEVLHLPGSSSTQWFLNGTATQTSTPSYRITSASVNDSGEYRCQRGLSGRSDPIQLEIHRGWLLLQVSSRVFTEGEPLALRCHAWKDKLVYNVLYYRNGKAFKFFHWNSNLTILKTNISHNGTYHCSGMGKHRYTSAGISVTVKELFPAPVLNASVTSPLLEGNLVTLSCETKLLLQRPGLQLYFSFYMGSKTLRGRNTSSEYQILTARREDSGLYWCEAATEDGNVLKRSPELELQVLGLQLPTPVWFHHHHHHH
row,He/Con 1a,Binder
1,101 % of control,B1
2,102 % of control,B2
3,102 % of control,B3
4,102 % of control,B4
5,101 % of control,B5
6,100 % of control,B6
7,101 % of control,B7
8,102 % of control,B8
9,101 % of control,B9
10,101 % of control,B10
11,101 % of control,B11
12,99.7 % of control,B12
13,102 % of control,B13
14,101 % of control,B14
15,100 % of control,B15
16,101 % of control,B16
17,98.5 % of control,B17
18,101 % of control,B18
19,101 % of control,B19
20,103 % of control,B20
21,100 % of control,B21
22,101 % of control,B22
23,103 % of control,B23
24,98.8 % of control,B24
25,101 % of control,B25
26,101 % of control,B26
